Assay results: PMC9482650, “Quantitative fragmentomics allow affinity mapping of interactomes” (Nature Communications, 2022)

T1: APBA2_2, Q99767
T1 sequence (Q99767 654-744, limits assumed, looked up): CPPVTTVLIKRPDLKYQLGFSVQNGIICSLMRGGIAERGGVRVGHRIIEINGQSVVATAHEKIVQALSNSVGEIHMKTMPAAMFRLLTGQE

T2: DFNB31_2, Q9P202
T2 sequence (Q9P202 274-371, limits assumed, looked up): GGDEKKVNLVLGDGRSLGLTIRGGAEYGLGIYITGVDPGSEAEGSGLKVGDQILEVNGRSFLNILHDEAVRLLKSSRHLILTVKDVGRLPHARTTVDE

T3: GRIP1_7, Q9Y3R0
T3 sequence (Q9Y3R0 999-1096, limits assumed, looked up): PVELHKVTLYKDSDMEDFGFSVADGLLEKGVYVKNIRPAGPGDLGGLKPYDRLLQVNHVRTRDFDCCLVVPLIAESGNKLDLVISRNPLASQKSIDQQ

T4: HTRA4, P83105
T4 sequence (P83105 378-476, limits assumed, looked up): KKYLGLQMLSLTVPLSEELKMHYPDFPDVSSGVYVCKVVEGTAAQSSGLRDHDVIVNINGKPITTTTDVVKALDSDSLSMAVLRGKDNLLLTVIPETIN

T5: LIN7A, O14910
T5 sequence (O14910 103-200, limits assumed, looked up): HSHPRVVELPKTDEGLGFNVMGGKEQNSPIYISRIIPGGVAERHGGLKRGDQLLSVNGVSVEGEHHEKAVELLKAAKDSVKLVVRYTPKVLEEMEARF

T6: LNX2_2, Q8N448
T6 sequence (Q8N448 334-432, limits assumed, looked up): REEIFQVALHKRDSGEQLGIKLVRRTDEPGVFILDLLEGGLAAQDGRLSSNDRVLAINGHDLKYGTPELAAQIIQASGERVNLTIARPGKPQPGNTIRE

T7: MPDZ_10, O75970
T7 sequence (O75970 1624-1722, limits assumed, looked up): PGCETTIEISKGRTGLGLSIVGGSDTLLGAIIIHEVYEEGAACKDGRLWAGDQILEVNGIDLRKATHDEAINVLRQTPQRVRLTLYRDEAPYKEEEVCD

T8: MPP2, Q14168
T8 sequence (Q14168 180-250, limits assumed, looked up): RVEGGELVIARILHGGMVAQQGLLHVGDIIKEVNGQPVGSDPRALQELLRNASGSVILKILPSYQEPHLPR

T9: NHERF3_4, Q5T2W1
T9 sequence (Q5T2W1 373-468, limits assumed, looked up): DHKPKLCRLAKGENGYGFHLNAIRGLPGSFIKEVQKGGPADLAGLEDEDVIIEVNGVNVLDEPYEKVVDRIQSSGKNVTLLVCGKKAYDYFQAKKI

T10: PCLO, Q9Y6V0
T10 sequence (Q9Y6V0 4491-4600, limits assumed, looked up): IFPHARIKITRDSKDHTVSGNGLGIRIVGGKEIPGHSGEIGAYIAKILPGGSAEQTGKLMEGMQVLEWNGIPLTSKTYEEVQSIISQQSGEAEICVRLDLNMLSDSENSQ

T11: RADIL, Q96JH8
T11 sequence (Q96JH8 971-1071, limits assumed, looked up): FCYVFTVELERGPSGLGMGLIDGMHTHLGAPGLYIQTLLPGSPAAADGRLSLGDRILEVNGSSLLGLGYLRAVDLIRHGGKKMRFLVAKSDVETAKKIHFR

T12: TX1BP3, O14907
T12 sequence (O14907 10-122, limits assumed, looked up): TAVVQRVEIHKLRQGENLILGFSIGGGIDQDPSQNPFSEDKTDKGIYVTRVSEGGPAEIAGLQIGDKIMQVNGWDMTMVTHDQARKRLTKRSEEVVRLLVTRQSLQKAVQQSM

B1: KCNJ9, Q92806 (peptide)
chain: LPPPESESKV

These binders were tested against T1, APBA2_2, Q99767 (assay: holdup assay). Details: plain residues with an end cap or a label only (N-terminal biotin on a linker: ado-ado).
Design: key: below the threshold = too weak to quantify, mostly under pKd 3.1 to 4

pKd	Binder
below the threshold	B1

The binders below were run against ARHGEF12, Q9NZN5-2 (assay: holdup assay). Details: plain residues with an end cap or a label only (N-terminal biotin on a linker: ado-ado).
Chain of ARHGEF12, Q9NZN5-2 (Q9NZN5 other isoform, or with tags, fused parts or gaps): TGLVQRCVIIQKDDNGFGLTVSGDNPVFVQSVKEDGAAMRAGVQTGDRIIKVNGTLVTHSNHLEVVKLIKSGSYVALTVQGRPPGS
Design: key: below the threshold = too weak to quantify, mostly under pKd 3.1 to 4

pKd	Binder
below the threshold	B1

What follows are binders tested against T2, DFNB31_2, Q9P202 (assay: holdup assay). Details: plain residues with an end cap or a label only (N-terminal biotin on a linker: ado-ado).
Design: key: below the threshold = too weak to quantify, mostly under pKd 3.1 to 4

pKd	Binder
below the threshold	B1

The binders below were run against FRMPD2_2, Q68DX3 (assay: holdup assay). Details: plain residues with an end cap or a label only (N-terminal biotin on a linker: ado-ado).
Chain of FRMPD2_2, Q68DX3 (Q68DX3 944-1038): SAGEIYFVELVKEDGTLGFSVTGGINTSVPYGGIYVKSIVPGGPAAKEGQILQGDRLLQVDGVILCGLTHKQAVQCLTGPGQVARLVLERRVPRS
Design: key: below the threshold = too weak to quantify, mostly under pKd 3.1 to 4

pKd	Binder
3.56	B1

The binders below were run against FRMPD2_3, Q68DX3 (assay: holdup assay). Details: plain residues with an end cap or a label only (N-terminal biotin on a linker: ado-ado).
Chain of FRMPD2_3, Q68DX3 (Q68DX3 1073-1166): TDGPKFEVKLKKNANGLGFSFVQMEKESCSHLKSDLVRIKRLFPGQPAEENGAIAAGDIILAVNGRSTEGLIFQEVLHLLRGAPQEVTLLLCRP
Design: key: below the threshold = too weak to quantify, mostly under pKd 3.1 to 4

pKd	Binder
below the threshold	B1

Each binder was assayed against T3, GRIP1_7, Q9Y3R0 (assay: holdup assay). Details: plain residues with an end cap or a label only (N-terminal biotin on a linker: ado-ado).
Design: key: below the threshold = too weak to quantify, mostly under pKd 3.1 to 4

pKd	Binder
below the threshold	B1

Each binder was assayed against T4, HTRA4, P83105 (assay: holdup assay). Details: plain residues with an end cap or a label only (N-terminal biotin on a linker: ado-ado).
Design: key: below the threshold = too weak to quantify, mostly under pKd 3.1 to 4

pKd	Binder
below the threshold	B1

The binders below were run against IL16_3, Q14005 (assay: holdup assay). Details: plain residues with an end cap or a label only (N-terminal biotin on a linker: ado-ado).
Chain of IL16_3, Q14005 (Q14005 1107-1207): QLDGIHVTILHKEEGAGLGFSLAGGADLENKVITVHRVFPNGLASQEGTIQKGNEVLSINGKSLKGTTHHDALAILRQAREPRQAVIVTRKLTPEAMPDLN
Design: key: below the threshold = too weak to quantify, mostly under pKd 3.1 to 4

pKd	Binder
below the threshold	B1

Each binder was assayed against Inadl_10, Q8NI35 (assay: holdup assay). Details: plain residues with an end cap or a label only (N-terminal biotin on a linker: ado-ado).
Chain of Inadl_10, Q8NI35 (Q8NI35 1673-1763): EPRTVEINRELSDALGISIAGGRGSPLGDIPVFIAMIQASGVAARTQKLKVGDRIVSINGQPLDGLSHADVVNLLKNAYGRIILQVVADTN
Design: key: below the threshold = too weak to quantify, mostly under pKd 3.1 to 4

pKd	Binder
below the threshold	B1

What follows are binders tested against Inadl_5, Q8NI35 (assay: holdup assay). Details: plain residues with an end cap or a label only (N-terminal biotin on a linker: ado-ado).
Chain of Inadl_5, Q8NI35 (Q8NI35 673-780): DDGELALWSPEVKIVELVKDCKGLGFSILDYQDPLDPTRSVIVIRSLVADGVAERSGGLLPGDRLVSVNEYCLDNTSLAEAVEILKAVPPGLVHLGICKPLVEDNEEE
Design: key: below the threshold = too weak to quantify, mostly under pKd 3.1 to 4

pKd	Binder
below the threshold	B1

What follows are binders tested against Inadl_8, Q8NI35 (assay: holdup assay). Details: plain residues with an end cap or a label only (N-terminal biotin on a linker: ado-ado).
Chain of Inadl_8, Q8NI35 (Q8NI35 1425-1530): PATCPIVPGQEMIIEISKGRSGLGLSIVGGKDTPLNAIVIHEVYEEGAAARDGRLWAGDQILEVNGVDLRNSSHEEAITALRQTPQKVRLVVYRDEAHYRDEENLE
Design: key: below the threshold = too weak to quantify, mostly under pKd 3.1 to 4

pKd	Binder
below the threshold	B1

The binders below were run against Inadl_9, Q8NI35 (assay: holdup assay). Details: plain residues with an end cap or a label only (N-terminal biotin on a linker: ado-ado).
Chain of Inadl_9, Q8NI35 (Q8NI35 1530-1615): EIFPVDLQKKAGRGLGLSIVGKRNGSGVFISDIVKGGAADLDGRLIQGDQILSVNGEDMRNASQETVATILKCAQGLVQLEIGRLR
Design: key: below the threshold = too weak to quantify, mostly under pKd 3.1 to 4

pKd	Binder
below the threshold	B1

Each binder was assayed against T5, LIN7A, O14910 (assay: holdup assay). Details: plain residues with an end cap or a label only (N-terminal biotin on a linker: ado-ado).
Design: key: below the threshold = too weak to quantify, mostly under pKd 3.1 to 4

pKd	Binder
below the threshold	B1

These binders were tested against LNX1_3, Q8TBB1 (assay: holdup assay). Details: plain residues with an end cap or a label only (N-terminal biotin on a linker: ado-ado).
Chain of LNX1_3, Q8TBB1 (Q8TBB1 500-596): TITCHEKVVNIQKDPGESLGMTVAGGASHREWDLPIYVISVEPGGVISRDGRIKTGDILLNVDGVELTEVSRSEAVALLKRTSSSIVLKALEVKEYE
Design: key: below the threshold = too weak to quantify, mostly under pKd 3.1 to 4

pKd	Binder
below the threshold	B1

The binders below were run against T6, LNX2_2, Q8N448 (assay: holdup assay). Details: plain residues with an end cap or a label only (N-terminal biotin on a linker: ado-ado).
Design: key: below the threshold = too weak to quantify, mostly under pKd 3.1 to 4

pKd	Binder
3.52	B1

The binders below were run against MAGI1_1, Q96QZ7 (assay: holdup assay). Details: plain residues with an end cap or a label only (N-terminal biotin on a linker: ado-ado).
Chain of MAGI1_1, Q96QZ7 (Q96QZ7 1-106): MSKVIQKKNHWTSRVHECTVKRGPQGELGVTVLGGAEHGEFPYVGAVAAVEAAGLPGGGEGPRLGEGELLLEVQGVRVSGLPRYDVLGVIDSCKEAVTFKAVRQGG
Design: key: below the threshold = too weak to quantify, mostly under pKd 3.1 to 4

pKd	Binder
below the threshold	B1

Each binder was assayed against MAGI1_2, Q96QZ7 (assay: holdup assay). Details: plain residues with an end cap or a label only (N-terminal biotin on a linker: ado-ado).
Chain of MAGI1_2, Q96QZ7 (Q96QZ7 456-580): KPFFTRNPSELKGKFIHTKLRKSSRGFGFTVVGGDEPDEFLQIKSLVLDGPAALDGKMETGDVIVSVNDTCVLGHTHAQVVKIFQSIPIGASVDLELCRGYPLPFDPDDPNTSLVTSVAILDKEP
Design: key: below the threshold = too weak to quantify, mostly under pKd 3.1 to 4

pKd	Binder
below the threshold	B1

What follows are binders tested against MAGI3_2, Q5TCQ9 (assay: holdup assay). Details: plain residues with an end cap or a label only (N-terminal biotin on a linker: ado-ado).
Chain of MAGI3_2, Q5TCQ9 (Q5TCQ9 398-503): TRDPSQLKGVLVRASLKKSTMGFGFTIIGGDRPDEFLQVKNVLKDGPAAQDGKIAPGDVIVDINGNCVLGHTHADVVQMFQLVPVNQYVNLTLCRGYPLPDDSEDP
Design: key: below the threshold = too weak to quantify, mostly under pKd 3.1 to 4

pKd	Binder
4	B1

The binders below were run against T7, MPDZ_10, O75970 (assay: holdup assay). Details: plain residues with an end cap or a label only (N-terminal biotin on a linker: ado-ado).
Design: key: below the threshold = too weak to quantify, mostly under pKd 3.1 to 4

pKd	Binder
below the threshold	B1

These binders were tested against T8, MPP2, Q14168 (assay: holdup assay). Details: plain residues with an end cap or a label only (N-terminal biotin on a linker: ado-ado).
Design: key: below the threshold = too weak to quantify, mostly under pKd 3.1 to 4

pKd	Binder
below the threshold	B1

These binders were tested against T9, NHERF3_4, Q5T2W1 (assay: holdup assay). Details: plain residues with an end cap or a label only (N-terminal biotin on a linker: ado-ado).
Design: key: below the threshold = too weak to quantify, mostly under pKd 3.1 to 4

pKd	Binder
below the threshold	B1

What follows are binders tested against T10, PCLO, Q9Y6V0 (assay: holdup assay). Details: plain residues with an end cap or a label only (N-terminal biotin on a linker: ado-ado).
Design: key: below the threshold = too weak to quantify, mostly under pKd 3.1 to 4

pKd	Binder
below the threshold	B1

The binders below were run against T11, RADIL, Q96JH8 (assay: holdup assay). Details: plain residues with an end cap or a label only (N-terminal biotin on a linker: ado-ado).
Design: key: below the threshold = too weak to quantify, mostly under pKd 3.1 to 4

pKd	Binder
below the threshold	B1

Each binder was assayed against TJP1_2, Q07157 (assay: holdup assay). Details: plain residues with an end cap or a label only (N-terminal biotin on a linker: ado-ado).
Chain of TJP1_2, Q07157 (Q07157 181-274): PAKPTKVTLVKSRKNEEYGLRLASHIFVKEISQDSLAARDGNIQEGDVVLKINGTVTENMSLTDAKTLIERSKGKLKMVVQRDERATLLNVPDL
Design: key: below the threshold = too weak to quantify, mostly under pKd 3.1 to 4

pKd	Binder
below the threshold	B1

Each binder was assayed against TJP2_1, Q9UDY2 (assay: holdup assay). Details: plain residues with an end cap or a label only (N-terminal biotin on a linker: ado-ado).
Chain of TJP2_1, Q9UDY2 (Q9UDY2 24-128): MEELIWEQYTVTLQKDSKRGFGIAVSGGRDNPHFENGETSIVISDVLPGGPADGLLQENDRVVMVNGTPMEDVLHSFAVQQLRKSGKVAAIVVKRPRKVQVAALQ
Design: key: below the threshold = too weak to quantify, mostly under pKd 3.1 to 4

pKd	Binder
below the threshold	B1

Each binder was assayed against T12, TX1BP3, O14907 (assay: holdup assay). Details: plain residues with an end cap or a label only (N-terminal biotin on a linker: ado-ado).
Design: key: below the threshold = too weak to quantify, mostly under pKd 3.1 to 4

pKd	Binder
below the threshold	B1
